Measurements from publication PMC3037360.

Tests used:
[1] = target: CFP-E2TM (CFP in fusion with the transmembrane domain of HCV E2, H strain) (hepatitis C virus (H strain)); assay: FRET or BRET
[2] = target: CFP-p7 (Cerulean fluorescent protein fused to the N-terminus of HCV p7) (hepatitis C virus (strain not stated)) (UniProt P27958); assay: FRET or BRET

“YFP-E1TM (YFP in fusion with the transmembrane domain of HCV E1, H strain) (domain or fragment)” showed a mean lifetime of the donor protein [1] of 2.35 ns.
For “YFP-NS2 (Venus yellow fluorescent protein fused to the N-terminus of HCV NS2) (from UniProt P27958 810-1026) (natural protein)”, the mean lifetime of the donor protein [2] was 2.34 ns.
